T1: human truncated-sCD25 (aa1-212 of NP_000408, C-terminal 8-histidine) (human, UniProt P01589 22-212)
T1 construct: range 1-212; Secreted from stably transfected HEK293F cells and purified on Ni-NTA; No signal peptide cleavage site is stated; also called hCD25-trunc
T1 sequence: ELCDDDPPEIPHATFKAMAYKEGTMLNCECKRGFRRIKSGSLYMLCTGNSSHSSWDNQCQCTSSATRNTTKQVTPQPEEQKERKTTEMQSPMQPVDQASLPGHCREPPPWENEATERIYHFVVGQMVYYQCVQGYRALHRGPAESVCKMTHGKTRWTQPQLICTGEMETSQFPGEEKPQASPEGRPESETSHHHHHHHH

T2: human sCD25(C213T) (aa1-240 of NP_000408 with C213T, C-terminal 8-histidine) (human, UniProt P01589 22-240)
T2 construct: range 1-240; Secreted from stably transfected HEK293F cells and purified on Ni-NTA; the inserted alanine shifts positions in the construct by one; No signal peptide cleavage site is stated; also called hCD25-C213T
T2 sequence: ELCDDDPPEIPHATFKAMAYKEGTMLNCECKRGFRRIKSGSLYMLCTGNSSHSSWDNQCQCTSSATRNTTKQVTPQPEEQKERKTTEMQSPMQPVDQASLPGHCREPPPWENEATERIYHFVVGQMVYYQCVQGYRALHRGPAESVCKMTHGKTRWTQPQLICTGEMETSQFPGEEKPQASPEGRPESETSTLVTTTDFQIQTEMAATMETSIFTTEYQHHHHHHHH

B1: recombinant murine IL-2 (accession number NP_032392) (ligand, mouse, UniProt P04351 21-169, looked up)
chain: APTSSSTSSSTAEAQQQQQQQQQQQQHLEQLLMDLQELLSRMENYRNLKLPRMLTFKFYLPKQATELKDLQCLEDELGPLRHVLDLTQSKSFQLEDAENFISNIRVTVVKLKGSDNTFECQFDDESATVVDFLRRWIAFCQSIISTSPQ
notes: also called mouse IL-2; mIL-2
B2: mouse sCD25 (murine soluble CD25, aa1-208 of NP_032393, C-terminal 8-histidine) (receptor)
chain: ELCLYDPPEVPNATFKALSYKNGTILNCECKRGFRRLKELVYMRCLGNSWSSNCQCTSNSHDKSRKQVTAQLEHQKEQQTTTDMQKPTQSMHQENLTGHCREPPPWKHEDSKRIYHFVEGQSVHYECIPGYKALQRGPAISICKMKCGKTGWTQPQLTCVDEREHHRFLASEESQGSRNSSPESETSHHHHHHHH
notes: range 1-208; Secreted from stably transfected HEK293F cells and purified on Ni-NTA; The construct is defined as aa1-208, signal peptide included; also called murine sCD25; mCD25

Test [1] has as its target T1, human truncated-sCD25 (aa1-212 of …). Kind of test: SPR (Biacore T200), steady-state fit; mouse IL-2 (1000-3.9 nM) injected over immobilized human truncated-sCD25; mean ± SD of three injection series [cont'd.) C]. The protocol: (§1) SPR experiments were performed on a Biacore T200 instrument at 25° C. using a flowrate of 30 μL min-1 in a running buffer of HBS-T (10 mM HEPES (pH 7.3), 140 mM NaCl, 0.005% Tween 20). Proteins were immobilized on a CMD200 biosensor chip (Xantec Bioanalytics) using ethyl-3-(3-dimethylaminopropyl)-carbodiimide (EDC)/N-hydroxysuccinimide/(NHS) coupling chemistry. […] A reference surface was created by EDC/NHS activation followed by a seven-minute injection of 1 M ethanolamine (pH 8.5). […] Surfaces were regenerated to baseline by injection of 2M NaCl for three minutes. Each injection series was performed in triplicate. The resulting reference-corrected sensorgrams were blank subtracted using an injection of HBS-T and fit to a steady-state model of binding using T200 Evaluation software. KD values and Rₘₐₓ values are reported as the mean±standard deviation (SD). All figures were prepared using Graphpad Prism 8.0.
A general note: SPR reads the build-up and loss of mass on a sensor chip optically.

The target in test [2] is T2, human sCD25(C213T) (aa1-240 of …. As to the kind of experiment: SPR (Biacore T200), steady-state fit; mouse IL-2 (1000-3.9 nM) injected over immobilized human sCD25(C213T); mean ± SD of three injection series [cont'd.) B]. The protocol: as §1
For test [3], the target named is B2. As to the kind of experiment: SPR (Biacore T200), steady-state fit; mouse IL-2 (1000-3.9 nM) injected over immobilized mouse sCD25; mean ± SD of three injection series. The protocol:
as §1

The target of test [4] is T3, anti-mouse CD25-BV421 mAb (clone PC61).
T3 construct: Commercial fluorochrome-conjugated mAb (Biolegend), mouse-specific; also called BV421-PC61; anti-mouse CD25 mAb
Kind of test: Flow cytometry competition: mouse sCD25 (1-1000 nM) pre-incubated with BV421-PC61 for 1 h at 4 °C, then HEK cells expressing full-length mouse CD25 added; blocked: binding of the mAb to CD25 on the cells. The protocol: Then, HEKs expressing full-length transmembrane mouse CD25 or human CD25 were added to each tube and incubated for 1 hour at 4° C. and subsequently washed with HBSS two times prior to analyzing surface bound anti-CD25 mAbs by flow cytometry.
In general terms: In flow cytometry, cells or beads pass a laser one at a time.

The Kd is the equilibrium constant for the complex coming apart. Take B1: the Kd came out at 740 nM in test [1], 430 nM in test [2] and 250 nM in test [3].

Take B2: the “IC50 (read off the curve)” value in test [4] is ~5 nM.

The record behind these values is patent US20240190935A1 (EAST CAROLINA UNIVERSITY, published 2024).
